From patent US20200030378A1

B1: w876 clonotype 13 TCR (TCR)
TCR alpha: CVVTDTSGGGADGLTF
TCR beta: CASSLAGLAGTDTQYF
B2: w876 clonotype 14 TCR (TCR)
TCR alpha: CVVPSAGKSTF
TCR beta: CASSEFAGQETQYF
B3: w830 clonotype 3 TCR (TCR)
TCR alpha: CAYPSTDKLIF
TCR beta: CASSILGASNQPQHF
B4: w876 clonotype 8 TCR (TCR)
TCR alpha: CVVYASKIIF
TCR beta: CASSDTPDLNTEAFF

Molecular target: MCPyV KLL epitope presented by HLA-A*02:01 on cells (human; Merkel cell polyomavirus), A*02:0
Experiment: cell-based or functional assay

Binder	EC50 (ng/uL DNA), IFN-γ secretion, COS-7 + HLA-A*02:01 + tLTAg plasmid
B1	3.9 ng/µL DNA
B2	5.4 ng/µL DNA
B3	270 ng/µL DNA
B4	4.2 ng/µL DNA
